Source: patent publication US20200123233A1

Tests used:
[1] = molecular target: FTM-NN (membrane anchorless form of the Long fusion protein, 70 kDa) (human respiratory syncytial virus, strain Long) (UniProt P12568)
[2] = molecular target: F protein of RSV A-2 (human respiratory syncytial virus, strain A-2) (UniProt P03420); assay: cell-based or functional assay
[3] = molecular target: F protein of RSV B-1 (human respiratory syncytial virus, strain B-1) (UniProt P13843); assay: cell-based or functional assay
[4] = molecular target: F protein of RSV Long (RSV LONG M-2) (human respiratory syncytial virus, strain Long) (UniProt P12568); assay: cell-based or functional assay
[5] = molecular target: FTM-NN (membrane anchorless form of the Long fusion protein, 70 kDa) (human respiratory syncytial virus, strain Long) (UniProt P12568); assay: SPR (Biacore), FTM-NN immobilised
[6] = molecular target: F protein of hRSV strain B-1 (human respiratory syncytial virus, strain B-1 (ATCC VR-1580)) (UniProt P13843); assay: cell-based or functional assay
[7] = molecular target: F protein of hRSV strain Long (human respiratory syncytial virus, strain Long (ATCC VR-26)) (UniProt P12568); assay: cell-based or functional assay

Work on 101F Fab (WO 06/050280) yielded an IC50 [1] of 1.12 nM.

“Numax Fab (Motavizumab or MEDI-524; WO 06/050166)” showed an IC50 [1] of 0.086 nM.

Substance “Synagis® (Palivizumab, MedImmune, humanized monoclonal antibody)” has an RSV neutralization IC50 (nM) (n = 2), A-2 [2] of 2.5 nM, an RSV neutralization IC50 (nM) (n = 2), B1 [3] of 1.7 nM and an RSV neutralization IC50 (nM) (n = 2), Long [4] of 4 nM. It also gave a Kd [5] of 0.64 nM, a koff [5] of 0.00018 s⁻¹ and a kon [5] of 280000 M⁻¹ s⁻¹.

For “Synagis (Palivizumab, MedImmune, humanized monoclonal antibody)”, the Neutralization IC50 (nM), B-1 (first assay) [6] was 2.1 nM, the Neutralization IC50 (nM), B-1 (second assay) [6] was 2.9 nM and the Neutralization IC50 (nM), Long (first assay) [7] was 7.3 nM. The Neutralization IC50 (nM), Long (second assay) [7] was 6 nM.

In the case of Synagis Fab, the IC50 [1] is reported as 0.597 nM.
